The text below walks through data of paper PMC6749138.

Assay [1] addresses HA-tagged HIV-1 Nef E63A (HIV-1 (NL4-3)) (UniProt P03406).
The target in assay [2] is HA-tagged HIV-1 Nef E63A/F68A double mutant (HIV-1 (NL4-3)) (UniProt P03406).
For assay [3], the target named is HA-tagged HIV-1 Nef F68A (HIV-1 (NL4-3)) (UniProt P03406).

Regarding “adaptor protein 1 (AP-1) complex (from UniProt Q9BXS5 1-423)”, the ratio of the GFP+ MHC-I- population of HEK293T cells transfected with Nef (flow cytometry; wild type 34.9%) in assay [1] was determined as 25.7%; in assay [2], 19.2%; in assay [3], 23.2%.
